According to PMC5703881:
pKd: −log10 of the molar value.

What was measured:
Assay in all cases: SPR
Conditions in all cases: Bead assay: PBS with 1% BSA, antibody 0.2 or 2 ug/ml, 1 h, 22 C; SPR conditions not in the material
71F12GL-SFH (human) = tested on: 71F12GL-SFH (human)
71F12GL-SF (human) = tested on: 71F12GL-SF (human)
72H11 IgG (human) = tested on: 72H11 IgG (human)
[1] = tested on: 71F12 GL (germline-reverted) (human)

Sequence: GGGGGGGGT [9-mer G8T]
- fold reduction in affinity (fold lower affinity than for GGGGGGTTT) (71F12GL-SFH (human)): 150

Sequence: GGGGGGTTT [9-mer G6T3]
- fold reduction in affinity (fold lower affinity than 71F12GL-SFH) (71F12GL-SF (human)): 30

Sequence: TAATACGACTCACTATAGGG (double strand) [biotinylated 20-bp dsDNA (Fig. 4A)]
- pKd (72H11 IgG (human)): 6.40

Sequence: TTTTT [5-mer T5]
- fold reduction in affinity (fold lower affinity than 71F12) [1]: 50
